Blank lines part the entries; values can stand above or below the binder they belong to.
Biological target: T1, Adenomatosis Polyposis Coli (APC) (UniProt P25054 2-2843, limits assumed)
T1 construct: Stands for 'APC' where the sentence names no fragment; also called tumor suppressor protein APC
Test: yeast 2-hybrid, partial pieces of conductin

T1 sequence (P25054 2-2843 limits assumed): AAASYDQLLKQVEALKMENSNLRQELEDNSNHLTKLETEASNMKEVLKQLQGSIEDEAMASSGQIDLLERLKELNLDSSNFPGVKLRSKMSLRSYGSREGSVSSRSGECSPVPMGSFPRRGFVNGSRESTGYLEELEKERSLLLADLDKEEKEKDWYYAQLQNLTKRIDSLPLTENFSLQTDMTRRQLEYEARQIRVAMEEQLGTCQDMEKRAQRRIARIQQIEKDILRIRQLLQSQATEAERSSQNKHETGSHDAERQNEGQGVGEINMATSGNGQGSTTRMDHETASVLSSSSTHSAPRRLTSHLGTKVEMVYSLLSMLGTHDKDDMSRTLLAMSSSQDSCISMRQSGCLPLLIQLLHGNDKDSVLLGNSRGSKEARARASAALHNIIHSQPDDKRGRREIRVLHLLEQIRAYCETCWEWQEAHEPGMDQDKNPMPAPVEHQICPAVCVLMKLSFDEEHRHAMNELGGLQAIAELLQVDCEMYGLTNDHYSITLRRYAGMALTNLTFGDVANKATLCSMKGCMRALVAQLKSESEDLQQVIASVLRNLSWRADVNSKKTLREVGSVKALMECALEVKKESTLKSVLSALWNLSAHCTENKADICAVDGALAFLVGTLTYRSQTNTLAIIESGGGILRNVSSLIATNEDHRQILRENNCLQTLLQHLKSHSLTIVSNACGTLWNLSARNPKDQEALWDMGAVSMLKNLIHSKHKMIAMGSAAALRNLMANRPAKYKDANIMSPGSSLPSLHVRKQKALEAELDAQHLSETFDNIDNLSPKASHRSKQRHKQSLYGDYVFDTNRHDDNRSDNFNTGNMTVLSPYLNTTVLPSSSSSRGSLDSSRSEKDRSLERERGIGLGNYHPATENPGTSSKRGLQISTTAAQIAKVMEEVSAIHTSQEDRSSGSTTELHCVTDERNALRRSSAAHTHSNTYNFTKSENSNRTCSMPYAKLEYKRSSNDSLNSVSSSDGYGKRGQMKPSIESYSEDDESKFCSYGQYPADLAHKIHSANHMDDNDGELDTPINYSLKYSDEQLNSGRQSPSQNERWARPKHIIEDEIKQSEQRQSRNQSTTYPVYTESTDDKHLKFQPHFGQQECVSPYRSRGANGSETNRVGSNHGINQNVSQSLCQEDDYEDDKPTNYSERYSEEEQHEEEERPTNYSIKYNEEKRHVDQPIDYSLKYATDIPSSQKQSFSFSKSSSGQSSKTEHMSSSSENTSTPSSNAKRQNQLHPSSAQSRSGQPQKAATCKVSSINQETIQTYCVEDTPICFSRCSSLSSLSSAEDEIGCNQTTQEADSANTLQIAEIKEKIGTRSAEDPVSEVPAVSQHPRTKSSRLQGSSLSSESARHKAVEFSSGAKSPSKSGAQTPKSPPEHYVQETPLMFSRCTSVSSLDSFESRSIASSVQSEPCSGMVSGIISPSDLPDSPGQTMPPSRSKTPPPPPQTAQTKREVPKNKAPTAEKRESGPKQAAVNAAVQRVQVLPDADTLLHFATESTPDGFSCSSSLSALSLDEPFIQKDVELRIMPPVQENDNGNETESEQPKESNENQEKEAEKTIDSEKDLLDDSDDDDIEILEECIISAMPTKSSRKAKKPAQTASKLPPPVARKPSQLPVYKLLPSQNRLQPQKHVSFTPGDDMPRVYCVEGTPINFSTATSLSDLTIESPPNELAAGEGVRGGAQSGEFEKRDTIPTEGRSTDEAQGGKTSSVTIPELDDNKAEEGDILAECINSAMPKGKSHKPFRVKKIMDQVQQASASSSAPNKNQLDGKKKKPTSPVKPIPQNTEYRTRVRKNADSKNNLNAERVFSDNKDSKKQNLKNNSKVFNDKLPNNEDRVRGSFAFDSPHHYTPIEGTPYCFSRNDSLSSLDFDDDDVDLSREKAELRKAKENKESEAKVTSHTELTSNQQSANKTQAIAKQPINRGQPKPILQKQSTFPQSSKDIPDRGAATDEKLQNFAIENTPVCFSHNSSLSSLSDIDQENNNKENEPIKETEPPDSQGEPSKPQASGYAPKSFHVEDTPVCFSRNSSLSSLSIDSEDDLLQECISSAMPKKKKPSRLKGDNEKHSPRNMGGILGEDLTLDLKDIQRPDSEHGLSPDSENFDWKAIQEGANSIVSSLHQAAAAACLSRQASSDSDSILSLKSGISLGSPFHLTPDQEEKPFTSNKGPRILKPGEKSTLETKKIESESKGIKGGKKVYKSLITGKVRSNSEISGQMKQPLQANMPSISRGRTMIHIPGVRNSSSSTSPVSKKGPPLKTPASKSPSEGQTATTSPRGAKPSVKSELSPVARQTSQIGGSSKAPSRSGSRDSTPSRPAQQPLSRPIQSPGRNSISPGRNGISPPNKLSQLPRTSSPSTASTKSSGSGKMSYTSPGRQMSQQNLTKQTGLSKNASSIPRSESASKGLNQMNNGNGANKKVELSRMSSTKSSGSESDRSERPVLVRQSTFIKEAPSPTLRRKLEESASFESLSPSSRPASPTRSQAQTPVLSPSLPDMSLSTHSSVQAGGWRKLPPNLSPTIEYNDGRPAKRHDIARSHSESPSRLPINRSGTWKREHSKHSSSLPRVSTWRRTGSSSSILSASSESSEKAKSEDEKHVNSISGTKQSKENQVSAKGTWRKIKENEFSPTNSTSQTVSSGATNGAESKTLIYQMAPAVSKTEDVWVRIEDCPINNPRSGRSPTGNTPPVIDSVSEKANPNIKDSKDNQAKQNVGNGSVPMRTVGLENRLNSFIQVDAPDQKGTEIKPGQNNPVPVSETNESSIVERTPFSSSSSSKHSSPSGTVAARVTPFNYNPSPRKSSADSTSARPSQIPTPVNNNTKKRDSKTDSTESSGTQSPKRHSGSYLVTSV

binding result: no binding
B1: conductin disheveled homology region (amino acids 783-833) (other)
chain: LTLGHFKEQLSKKGNYRYYFKKASDEFACGAVFEEIWDDETVLPMYEGRIL

binding result: no binding
B2: conductin GSK 3b-binding domain (amino acids 343-396) (other)
chain: ANGQVSLPHFPRTHRLPKEMTPVEPAAFAAELISRLEKLKLELESRHSLEERLQ
notes: also called GSK BD

binding result: no binding
B3: conductin β-catenine binding domain (amino acids 397-465) (other)
chain: QIREDEEKEGSEQALSSRDGAPVQHPLALLPSGSYEEDPQTILDDHLSRVLKTPGCQSPGVGRYSPRSR
notes: also called b-BD
